How the values were obtained:
Assay type in all cases: cell-based
gene editing with Cas9 = test: Screen of 322 new SSAP proteins, gene editing activity with Cas9 (Table 5); set-up: Cas9 with SSAP activity: scale not given here
Procedure, shortened: (§1)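 Read-out is gene editing activity. Candidates come from sequence data mining, are made synthetically, and are tested alongside either nuclease-active Cas9 or catalytically dead dCas9.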

[1] = test system: gene editing with Cas9 and dCas9; test: Screen of 322 new SSAP proteins, activity across all experiments (Cas9 and dCas9, Table 5); set-up: scale not given here
Procedure, shortened: as §1

gene editing with dCas9 = test: Screen of 322 new SSAP proteins, gene editing activity with dCas9 (Table 5); set-up: dCas9 with SSAP activity: scale not given here
Procedure, shortened: as §1

B1: SSAP_257: SEQ ID NO: 426; Listeria (multispecies) (protein, listed as Listeria sp.)
chain: ATNDELKNQLANKQNGGQVASAQSLDLKGLLEAPTMRKKFEKVLDKKAPQFLTSLLNLYNGDDYLQKTDPMTVVTSAMVAATLDLPIDKNLGYAWIVPYKGRAQFQLGYKGYIQLALRSGQYKSINVIEVREGELLKWNRLTEEIELDLDNNTSEKVVGYCGYFQLINGFEKTVYWTRKEIEAHKQKFSKSDFGWKKDYDAMAKKTVLRNMLSKWGILSIDMQTAVTEDEAEPRERKDVTEDESIPDIIDAPITPSDTLEAGSEVQGSMI
- Cas9 with SSAP activity (gene editing with Cas9): 0.216
- Cas9 with SSAP activity (normalized) (gene editing with Cas9): 0.821
- Activity across all experiments [1]: −1.217
- dCas9 with SSAP activity (gene editing with dCas9): −2.649
- dCas9 with SSAP activity (normalized) (gene editing with dCas9): −1.189

B2: SSAP_314: SEQ ID NO: 483; Ferrimonas kyonanensis (protein, listed as Ferrimonas kyonanensis)
chain: NQMINEPDFVTALKDSRETYIDLTQNGGFNLNYGLEAGWAHQQIEASRYQNLDLTCSEPGSIMQAFCEAARLGLSFDPRKKHIYLMGQKDVQSGRTITILYVGYKGMIALACRTGFMIGGHADLVFEEDTFTYRSGTQLPVHEHDGRPNHERGRLKCGYVVAHQPGGMVKTLLVPKEVLLEAASNGLNAGGSNNTWCGPYMEMMYQKTCWRYAFNAWYSELEAVGMTQAQLESATTAVSYQ
- Cas9 with SSAP activity (gene editing with Cas9): 0.114
- Cas9 with SSAP activity (normalized) (gene editing with Cas9): 0.106
- Activity across all experiments [1]: −1.240
- dCas9 with SSAP activity (gene editing with dCas9): −2.593
- dCas9 with SSAP activity (normalized) (gene editing with dCas9): −0.657

B3: SSAP_154: SEQ ID NO: 323; Corynebacterium urealyticum (protein, listed as Corynebacterium urealyticum)
chain: AKNLEARMQQSTNAPARADKPLSLPDQIRQMEDQFRLAMPKGAEATQLVRDALTCLRQTPQLAQCTPASVLGGLMTCAQLGLRPGVLGHAYLIPFNDRRSGNSVAQLVIGYQGLVELAHRSGQIKALIARTVYENDHFDVDYGLEDKLVHKPHMGADKGNPVAYYAVVKFTTGGHAFYVMSHPEMLQYRDKNAKSPKRGPWVDNFEAMAHKTCVRQLAKWMPKSTEFSQALATDESIRLDVTPDAINYPDHPAEGEVIDGEVEQDGGQQ
- Cas9 with SSAP activity (gene editing with Cas9): −0.806
- Cas9 with SSAP activity (normalized) (gene editing with Cas9): −0.733
- Activity across all experiments [1]: −1.758
- dCas9 with SSAP activity (gene editing with dCas9): −2.710
- dCas9 with SSAP activity (normalized) (gene editing with dCas9): −0.380

B4: SSAP_98: SEQ ID NO: 267; Pseudomonas fluorescens (protein, listed as Pseudomonas fluorescens)
chain: NSTAETATPFSSQDLEKTQPTKAQSKTGSLASLLASPKMKSQFAAALPKHMTPERMARIVTTEIRKNPELVKCEQHSFLGAVIQCAQLGLEPGNTLGHAYILPYGKQAQLIIGYRGMIDLARRSGQIISISARTVREGDYFEYEFGLDENLIHRPVETTQPGAVTHVYAVARLKDGGRQFEVMSRAQIEEVRVQSKAAKSGPWVTHWEEMAKKTVIRRVFKYLPVSVEIQRAVMLDEKAEAGVCQENECVFDGDFEVITDTEE
- Cas9 with SSAP activity (gene editing with Cas9): 0.754
- Cas9 with SSAP activity (normalized) (gene editing with Cas9): 0.207
- Activity across all experiments [1]: −0.971
- dCas9 with SSAP activity (gene editing with dCas9): −2.696
- dCas9 with SSAP activity (normalized) (gene editing with dCas9): −0.444

B5: SSAP_242: SEQ ID NO: 411; Lactococcus sp. S-13 (protein, listed as Lactococcus sp.)
chain: SNQITKTQQTLKSPEVKAKFEEVLGKKADGFVASLLSVVGNSNLKTVEANSVMTAAMKAATLDLPIEPSLGFAYVIPYGREAQFQIGYKGFIQLALRSGQLTGLNCGIVYESQFVSYDPLFEELELDFTQQASGDAVGYFASMKLANGFKKVTYWSKEQVLAHKKKFVKSANGPWRDHFDAMAQKTVLKAMLTKYAPASIESKMIQTAITEDDSERFENAKDVTPDEPVISIDEPVTSEVSQNESSAESQEQFPEDEVEELFPIGKS
- Cas9 with SSAP activity (gene editing with Cas9): 2.358
- Cas9 with SSAP activity (normalized) (gene editing with Cas9): 1.579
- Activity across all experiments [1]: 2.999
- dCas9 with SSAP activity (gene editing with dCas9): 3.640
- dCas9 with SSAP activity (normalized) (gene editing with dCas9): 2.062

B6: SSAP_64: SEQ ID NO: 233 (protein)
chain: SELQQAAQGQQSNNPVSFIYSHAKDIQNVLTKGTDMDRWLQMARLAVMRDQNLVASAKRDPGSLMQALLDCAEKGHVPGTEDYYLVPRKGGIQGMESWKGIAKRIMRSGRYQSIVNEVVYEGETFEFNPNTMDRPVHNINYMTRTSGKPVMSYAYALDHDGKPSSVAIADPRYIAKVKKNSRGSVWEDWDEQMYRKTAVKMLQDYVDTSSVDRRDVSTVQVDDANVIDVDDTFTAREAGE
- Cas9 with SSAP activity (gene editing with Cas9): 1.588
- Cas9 with SSAP activity (normalized) (gene editing with Cas9): 1.090
- Activity across all experiments [1]: −0.583
- dCas9 with SSAP activity (gene editing with dCas9): −2.755
- dCas9 with SSAP activity (normalized) (gene editing with dCas9): −1.023

B7: SSAP_30: SEQ ID NO: 199 (protein)
chain: EKPKLIQRFAERFSVDPNKLFDTLKATAFKQRDGSAPTNEQMMALLVVADQYGLNPFTKEIFAFPDKQAGIIPVVGVDGWSRIINQHDQFDGMEFKTSETKVSLDGAKECPEWMECIIYRRDRSHPVKITEYLDEVYRPPFEGNGKNGPYRVDGPWQTHTKRMLRHKSMIQCSRIAFGFVGIFDQDEAERIIEGQATHVVEPSVIPPEQVDDRTRGLVYKLIERAEASNAWNSALEYANEHFQGVELTFAKQEIFNAQQQAAKALTQPLAS
- Cas9 with SSAP activity (gene editing with Cas9): 0.813
- Cas9 with SSAP activity (normalized) (gene editing with Cas9): 0.564
- Activity across all experiments [1]: −0.927
- dCas9 with SSAP activity (gene editing with dCas9): −2.667
- dCas9 with SSAP activity (normalized) (gene editing with dCas9): −0.795

B8: SSAP_104: SEQ ID NO: 273; Salinicoccus albus (protein, listed as Salinicoccus albus)
chain: STNESLKNQVATNQKNEVSNGNKPKTIGDYIDQMAPAMAQALPKHMSVERMTRMATTVIRTTPQLKEADVASLLGAVMQSAQLGLEPGPMGHCYFLPFKNNKKGTTEVTFIIGYKGMIDLARRSGHISTIYAHAVYENDEFEYELGLHADLKHKPSEDERGAFKGAYAVAHFKDGGYQFEYMPKSDIDKRRSRSKAGNSNYSPWATDYEEMAKKTVIRHMWKYLPVSVEMQQAVAHDEGTGKDIKDVTPDEDSFVDMPEYIADVPAEGEGE
- Cas9 with SSAP activity (gene editing with Cas9): −4.226
- Cas9 with SSAP activity (normalized) (gene editing with Cas9): −0.744
- Activity across all experiments [1]: −3.455
- dCas9 with SSAP activity (gene editing with dCas9): −2.685
- dCas9 with SSAP activity (normalized) (gene editing with dCas9): −0.421

B9: SSAP_54: SEQ ID NO: 223; Bet Pseudomonas phage PS-1 (protein, listed as Pseudomonas sp.)
chain: SNVATIKPSSLSARMAERFGVDPNEMMATLKATAFKGQVSDAQMQALLIVADQYGLNPWTKEIYAFPDKGGIVPVVGVDGWSRIINENGAFDGMDFQQDDESCTCIIYRKDRNHPIKVTEWMAECKRNTQPWQSHPKRMLRHKAMIQCARLAFGYTGIFDEDEAQRIVEKDVTPAVNEPDITPALEAIKNASSMEELHAAFKAAWNQHPSARARLTAVKDERKKALSEPIEGELVENEDGPAQQ
- Cas9 with SSAP activity (gene editing with Cas9): −0.011
- Cas9 with SSAP activity (normalized) (gene editing with Cas9): −0.061
- Activity across all experiments [1]: −1.264
- dCas9 with SSAP activity (gene editing with dCas9): −2.517
- dCas9 with SSAP activity (normalized) (gene editing with dCas9): −0.565

B10: SSAP_23: SEQ ID NO: 192 (protein)
chain: TNNQLATQIKRDITTDPSLLTGADIKKYFDPQNLLTEKQVGQALALCKGRNLNPFANEVYIVAYQNNSGTEFSLIVSKEAFMKRAERCEGYDGFEAGITVMRNGEMIEIEGSLKLPEDILIGGWAVVYRKDRSHRYKVTVDFNEYVKTDRNGNPRSTWKSMPATMIRKTALVQTLREAFPDELGNMYTDIDGGDTFDAIKDVTPQESREDVVARKMAQIDQFNKEQEANHADPEPTQNEDPIQGELLDGELEY
- Cas9 with SSAP activity (gene editing with Cas9): 0.839
- Cas9 with SSAP activity (normalized) (gene editing with Cas9): 0.359
- Activity across all experiments [1]: −0.998
- dCas9 with SSAP activity (gene editing with dCas9): −2.835
- dCas9 with SSAP activity (normalized) (gene editing with dCas9): −0.450

B11: SSAP_239: SEQ ID NO: 408; Paenibacillus polymyxa (protein, listed as Paenibacillus polymyxa)
chain: PDKLLVIHDNLNKMLDEKSEAMPTSFNKTRFLQNCMAVLQDTKDIEQCDAKSVARTMLKGAFLGLDFFNKECYAIPYNENIGTKNKPRWIKSLQFQTDYKGEKKLAKKYSTRRVKDIYAKLVRDGDDFREEIESGQPTINFRPLPFNDGIIRGAFAVALFEDGGMIYETMSLKEIEKTRDDYSKQSTGKAWTKSPGEMYKKTVLRRLCKNIELDFDTIEQAQAFEDSSDFDMNKELKPQQQSPLNPNTTIIDAEYEEIKEEPADGPEQE
- Cas9 with SSAP activity (gene editing with Cas9): 1.340
- Cas9 with SSAP activity (normalized) (gene editing with Cas9): 0.516
- Activity across all experiments [1]: 1.811
- dCas9 with SSAP activity (gene editing with dCas9): 2.282
- dCas9 with SSAP activity (normalized) (gene editing with dCas9): 1.278

B12: SSAP_218: SEQ ID NO: 387; Streptococcus lutetiensis (protein, listed as Streptococcus lutetiensis)
chain: ANQLQMSHKDFFNRPAVKNKFSEVVSGKSDQFITSLLSVVNNNKLLSKADNNSILNAAMKAATLNLPIEPSLGSAYIVPFKGQAQFQLGYKGLIELAQRSGQYKSINAGVVYKAQFKSYDPLFETLDLDFNQPQDEVIGYFACFELLNGFRKITYWTREEVYNHGKRFSKSFNNGPWKTDFDAMAKKTLLKSIIGTYGPKSVDMQEAITDDNKTEYEKAEPIDVTPQEENLTDLIGETPQEELPIANPETGEIQEEQTALFNQLGDLTDD
- Cas9 with SSAP activity (gene editing with Cas9): −6.903
- Cas9 with SSAP activity (normalized) (gene editing with Cas9): −1.680
- Activity across all experiments [1]: −4.836
- dCas9 with SSAP activity (gene editing with dCas9): −2.770
- dCas9 with SSAP activity (normalized) (gene editing with dCas9): −0.443

From patent publication US20250034594A1, “RNA-GUIDED GENOME RECOMBINEERING AT KILOBASE SCALE” (THE BOARD OF TRUSTEES OF THE LELAND STANFORD JUNIOR …, priority 2021, published 2025)
